Source: patent publication US12162911B2, “Pulmonary administration of pyocins for treating bacterial respiratory infections” (priority 2014, dated 2024)
“Also recorded” adds a separate entry of the source.

How the values were obtained:
Type in all cases: in vivo, Pseudomonas aeruginosa
P. aeruginosa P8 = assay: Repeated pyocin exposure followed by P. aeruginosa P8 lung infection and pyocin S5 treatment; details: for survival: infected at thirteen weeks, 75 μg intranasal 1 h post-infection
Procedure: Repeated pyocin exposure. Pyocin S5 or PBS was given three times, two weeks apart with administration either via intranasal route (referred to as I.N. groups) or intraperitoneal route (referred to as I.P. groups). For I.N. administration the groups were: PBS and pyocin S5 (75 μg; 25 μl at 3 mg ml^−1). For I.P. administration the group was pyocin S5 (75 μg; 100 μl at 750 μg ml^−1). The PBS I.N. group served as the control group for the I.P. group. Thirteen weeks after the first exposure mice (n=5) were infected intranasally with P. aeruginosa P8 (I.N group infected with 1.4×10^7 CFU, I.P group infected with 5.0×10^6 CFU) and treated intranasally one hour post-infection with 75 μg of pyocin S5 or PBS, as described previously.
To ascertain if repeated exposure to pyocins gives rise to an antibody response that is detrimental to treatment, mice were repeatedly exposed to pyocin S5 to induce an antibody response and the efficacy of pyocin treatment was determined as before after infection with P. aeruginosa P8. Pyocin S5 was administered three times, with two weeks between each administration, either via the intranasal route (I.N.) or the intraperitoneal (I.P.) route. Thirteen weeks after the first treatment, mice (n=5) were infected intranasally with P. aeruginosa P8 (I.N. group infected with 1.4×10^7 CFU, I.P. group infected with 5.0×10^6 CFU) and treated intranasally 1 h post-infection with 75 μg of pyocin S5 or PBS. A control group administered only PBS intranasally prior to infection was also included. […] The levels of pyocin-S5 specific IgG and IgA were analysed for each mouse.

P8AP41T = assay: Mouse model of acute lung infection, AP41 tolerant strain P8AP41T; details: 3 mg ml^−1 1 h post-infection
Procedure: (§1) Model of acute lung infection. Female C57/BL6 mice were inoculated intranasally with 25 μl of bacterial culture containing approximately 10^7 CFU of the selected P. aeruginosa strain^36. Antibiotic treatments were administered at either 6 h pre-infection or 1 h post-infection and were administered only once. Pyocins or tobramycin dissolved in PBS were administered via intranasal administration as described above. Two different end-points were used in these experiments. In order to determine a reduction in the bacterial load of the lungs compared to the untreated controls, all mice in the experiment were culled by carbon dioxide asphyxiation at the same time; 4-6 h post infection. To determine if mice could survive infection after pyocin or tobramycin treatment, mice were monitored closely, culled by carbon dioxide asphyxiation when required as determined by a scoring system or culled at the pre-determined 24 h time point. Uninfected mice, treated with pyocins, were used as controls in the first series of experiments in order to ensure no adverse effects from pyocin treatment. These controls were stopped in later experiments in order to reduce the number of animals used, once it was clear that the pyocins were not harmful. For CFU determination, lungs were removed aseptically and kept on ice in 750 μl of PBS until homogenised. Serial 10-fold dilutions of the homogenised lung were plated on Pseudomonas selective agar (20 g peptone, 1.5 g K2HPO4, 1.5 g MgSO4·7H2O, 10 ml glycerol, 15 g agar, 0.025 g Irgasan per litre) and incubated at 37° C. for 24 h and then room temperature for 24 h before the colonies were counted.
In order to determine if pyocin tolerance or resistance was acquired upon pyocin treatment in vivo, viable bacteria recovered from mice that survived infection to the 24 h end-point, in all experiments discussed in this work, were tested for pyocin susceptibility. From these experiments no pyocin resistant colonies were isolated. […] Importantly, sensitivity to pyocins S5 and L1 were unaffected in vitro in this pyocin AP41-tolerant strain (FIG. 3a) and this was also shown to be the case in vivo when mice were infected with P8AP41T.

[1] = system: P. aeruginosa P5 (mucoid); assay: Mouse model of acute lung infection, P. aeruginosa P5
Procedure: as §1
Since strains of P. aeruginosa are phenotypically diverse, we tested the efficacy of the pyocins against three additional isolates: P. aeruginosa P17 and P. aeruginosa P5 (mucoid), both from cystic fibrosis patients and P. aeruginosa E2, an environmental isolate. Pyocin S2 was not active against P. aeruginosa P5 or P. aeruginosa E2 in vitro therefore was not used to treat these strains in vivo and similarly pyocin L1 was not used against P. aeruginosa P17. […] Lung homogenates from P. aeruginosa E2-infected AP41-treated mice contained high levels of viable bacteria, reduced only 10-fold relative to control mice (Table 1). […] Thus, pyocins show strong efficacy against diverse strains of P. aeruginosa with pyocin S5 treatment displaying the largest effect on reducing bacterial load.

B1: Pyocin S5: S-type pyocin, SEQ ID NO: 13; binds FptA, pore-forming effector (protein, listed as Pseudomonas aeruginosa)
chain: MSNDNEVPGSMVIVAQGPDDQYAYEVPPIDSAAVAGNMFGDLIQREIYLQKNIYYPVRSIFEQGTKEKKEINKKVSDQVDGLLKQITQGKREATRQERVDVMSAVLHKMESDLEGYKKTFTKGPFIDYEKQSSLSIYEAWVKIWEKNSWEERKKYPFQQLVRDELERAVAYYKQDSLSEAVKVLRQELNKQKALKEKEDLSQLERDYRTRKANLEMKVQSELDQAGSALPPLVSPTPEQWLERATRLVTQAIADKKQLQTTNNTLIKNSPTPLEKQKAIYNGELLVDEIASLQARLVKLNAETTRRRTEAERKAAEEQALQDAIKFTADFYKEVTEKFGARTSEMARQLAEGARGKNIRSSAEAIKSFEKHKDALNKKLSLKDRQAIAKAFDSLDKQMMAKSLEKFSKGFGVVGKAIDAASLYQEFKISTETGDWKPFFVKIETLAAGAAASWLVGIAFATATATPIGILGFALVMAVTGAMIDEDLLEKANNLVISI
Q: How did the survival (P. aeruginosa P8; I.N. pre-exposure 75 μg three times two weeks apart) turn out when B1 was run?
A: survived to the 24 h time-point

Q: What about the “bacterial load of the lungs” value (P. aeruginosa P8; I.N. pre-exposure 75 μg three times, 75 μg intranasal 1 h post-infection (FIG. 8a)) of the same molecule?
A: no viable bacteria were recovered

Q: What about the survival (P. aeruginosa P8; I.P. pre-exposure 75 μg three times two weeks apart) of the same molecule?
A: all survived to the 24 h time-point

Q: And the “bacterial load of the lungs” value (P. aeruginosa P8; I.P. pre-exposure 75 μg three times, 75 μg intranasal 1 h post-infection (FIG. 8c))?
A: no viable bacteria were recovered

Q: And the “bacterial numbers in lung homogenates” value (P8AP41T; 24 h (FIG. 3b))?
A: significantly reduced bacterial numbers; also recorded: No colonies were recovered

Q: What about the survival (P8AP41T; endpoint 24 h, PBS controls culled 6 h post-infection (FIG. 3b)) of the same molecule?
A: survived until the endpoint of the experiment at 24 h

Q: What about the survival / protection ([1]; pyocin 3 mg ml^−1, endpoint 24 h, infected controls culled at 4.5 h) of the same molecule?
A: survived until the 24 h endpoint

Q: What about the “bacterial count in lung, P5” value ([1]; pyocin 3 mg ml^−1, treated mice survived to 24 h, no treatment 1.7 × 10^5 CFU/lung) of the same molecule?
A: No colonies
